B1: GpH7-A5/GpH7-B3 variant V266_06M/GpL16-k0 (antibody, human IgG1, kappa)
heavy 1: not shown
heavy 2: not shown
light: DIVMTQSPLSLPVTPGEPASISCQASESLVHSNRNTYLHWYLQKPGQSPQLLIYKVSNRFSGVPDRFSGSGSGTDFTLKISRVEAEDVGVYYCSQNTHVPPTFGQGTKVEIERTVAAPSVFIFPPSDEQLKSGTASVVCLLNNFYPREAKVQWKVDNALQSGNSQESVTEQDSKDSTYSLSSTLTLSKADYEKHKVYACEVTHQGLSSPVTKSFNRGEC
notes: also called He Ab V266_06M
B2: GpH7-B3 variant L328_13S/GpL16-k0 (antibody, human IgG1, kappa)
heavy: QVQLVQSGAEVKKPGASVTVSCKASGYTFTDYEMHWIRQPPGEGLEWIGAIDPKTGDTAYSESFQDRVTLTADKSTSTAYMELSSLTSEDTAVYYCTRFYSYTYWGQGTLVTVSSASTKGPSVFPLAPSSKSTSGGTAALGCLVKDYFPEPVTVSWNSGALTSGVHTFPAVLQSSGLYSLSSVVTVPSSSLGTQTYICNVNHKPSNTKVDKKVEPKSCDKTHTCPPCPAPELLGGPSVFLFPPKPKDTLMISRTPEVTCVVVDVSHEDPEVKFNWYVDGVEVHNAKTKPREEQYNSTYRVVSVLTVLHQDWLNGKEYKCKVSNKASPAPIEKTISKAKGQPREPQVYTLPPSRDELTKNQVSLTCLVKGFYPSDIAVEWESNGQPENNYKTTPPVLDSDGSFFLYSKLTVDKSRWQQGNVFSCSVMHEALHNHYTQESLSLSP
light: B1 light
notes: homodimerized: alteration in both H chains; also called Ho Ab L328_13S
B3: GpH7-B3 variant S267_09D/GpL16-k0 (antibody, human IgG1, kappa)
heavy: not shown
light: B1 light
notes: homodimerized: alteration in both H chains; also called Ho Ab S267_09D
B4: GpH7-B3 variant K326_15Y/GpL16-k0 (antibody, human IgG1, kappa)
heavy: not shown
light: B1 light
notes: homodimerized: alteration in both H chains; also called Ho Ab K326_15Y
B5: GpH7-A5/GpH7-B3 variant T335_10E/GpL16-k0 (antibody, human IgG1, kappa)
heavy 1: not shown
heavy 2: not shown
light: B1 light
notes: also called He Ab T335_10E
B6: GpH7-A5/GpH7-B3 variant T335_15Y/GpL16-k0 (antibody, human IgG1, kappa)
heavy 1: not shown
heavy 2: not shown
light: B1 light
notes: also called He Ab T335_15Y
B7: GpH7-B3 variant S239_18N/GpL16-k0 (antibody, human IgG1, kappa)
heavy: not shown
light: B1 light
notes: homodimerized: alteration in both H chains; also called Ho Ab S239_18N
B8: GpH7-B3 variant A327_10E/GpL16-k0 (antibody, human IgG1, kappa)
heavy: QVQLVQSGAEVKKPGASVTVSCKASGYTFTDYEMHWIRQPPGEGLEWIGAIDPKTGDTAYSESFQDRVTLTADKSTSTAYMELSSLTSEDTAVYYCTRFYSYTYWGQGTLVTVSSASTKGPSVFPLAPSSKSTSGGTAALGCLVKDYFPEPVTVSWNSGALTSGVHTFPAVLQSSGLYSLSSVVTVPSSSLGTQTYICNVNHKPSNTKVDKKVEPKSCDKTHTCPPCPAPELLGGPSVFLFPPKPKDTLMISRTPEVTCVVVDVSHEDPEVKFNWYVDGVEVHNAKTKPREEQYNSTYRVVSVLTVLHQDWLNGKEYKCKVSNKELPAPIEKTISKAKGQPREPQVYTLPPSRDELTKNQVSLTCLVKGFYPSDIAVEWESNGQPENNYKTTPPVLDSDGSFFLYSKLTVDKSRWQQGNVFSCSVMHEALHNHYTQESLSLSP
light: B1 light
notes: homodimerized: alteration in both H chains; also called Ho Ab A327_10E
B9: GpH7-A5/GpH7-B3 variant S324_06M/GpL16-k0 (antibody, human IgG1, kappa)
heavy 1: not shown
heavy 2: not shown
light: B1 light
notes: also called He Ab S324_06M
B10: GpH7-B3 variant I336_08L/GpL16-k0 (antibody, human IgG1, kappa)
heavy: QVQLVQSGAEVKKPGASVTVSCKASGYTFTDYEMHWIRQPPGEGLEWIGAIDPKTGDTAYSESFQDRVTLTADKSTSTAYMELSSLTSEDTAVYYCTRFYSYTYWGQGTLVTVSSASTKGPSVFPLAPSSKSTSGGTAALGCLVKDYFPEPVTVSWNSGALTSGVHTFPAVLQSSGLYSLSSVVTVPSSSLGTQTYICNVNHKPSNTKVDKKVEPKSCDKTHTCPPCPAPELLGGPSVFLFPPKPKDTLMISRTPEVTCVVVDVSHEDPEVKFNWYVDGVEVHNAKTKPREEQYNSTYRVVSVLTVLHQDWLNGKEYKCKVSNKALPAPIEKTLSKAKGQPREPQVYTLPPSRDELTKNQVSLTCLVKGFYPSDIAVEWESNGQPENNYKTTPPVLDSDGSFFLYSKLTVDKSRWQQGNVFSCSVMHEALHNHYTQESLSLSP
light: B1 light
notes: homodimerized: alteration in both H chains; also called Ho Ab I336_08L
B11: GpH7-B3 variant S267_19Q/GpL16-k0 (antibody, human IgG1, kappa)
heavy: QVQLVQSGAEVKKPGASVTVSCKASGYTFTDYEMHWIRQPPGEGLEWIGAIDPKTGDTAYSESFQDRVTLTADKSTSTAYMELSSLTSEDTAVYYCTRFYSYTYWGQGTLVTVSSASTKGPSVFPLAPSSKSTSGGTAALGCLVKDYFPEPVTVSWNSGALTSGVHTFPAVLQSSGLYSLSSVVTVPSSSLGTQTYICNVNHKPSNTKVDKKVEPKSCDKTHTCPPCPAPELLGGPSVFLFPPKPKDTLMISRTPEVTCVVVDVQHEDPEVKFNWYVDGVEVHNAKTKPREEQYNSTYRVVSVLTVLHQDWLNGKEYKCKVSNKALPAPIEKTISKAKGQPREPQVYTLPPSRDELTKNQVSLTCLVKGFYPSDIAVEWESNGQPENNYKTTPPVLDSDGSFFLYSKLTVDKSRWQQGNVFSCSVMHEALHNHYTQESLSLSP
light: B1 light
notes: homodimerized: alteration in both H chains; also called Ho Ab S267_19Q
B12: GpH7-B3 variant K326_07I/GpL16-k0 (antibody, human IgG1, kappa)
heavy: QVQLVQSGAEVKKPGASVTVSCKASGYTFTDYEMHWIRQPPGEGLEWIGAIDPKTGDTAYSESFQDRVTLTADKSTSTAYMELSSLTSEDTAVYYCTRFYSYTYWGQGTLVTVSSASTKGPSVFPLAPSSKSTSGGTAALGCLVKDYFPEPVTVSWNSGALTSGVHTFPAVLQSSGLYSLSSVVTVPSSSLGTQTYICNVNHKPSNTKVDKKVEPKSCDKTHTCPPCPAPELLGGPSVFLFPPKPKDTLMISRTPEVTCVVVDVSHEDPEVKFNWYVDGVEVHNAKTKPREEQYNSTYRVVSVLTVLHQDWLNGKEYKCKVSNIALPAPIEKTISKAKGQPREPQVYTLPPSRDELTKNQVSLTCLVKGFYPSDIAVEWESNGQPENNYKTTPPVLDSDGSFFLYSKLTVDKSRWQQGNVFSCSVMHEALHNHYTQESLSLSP
light: B1 light
notes: homodimerized: alteration in both H chains; also called Ho Ab K326_07I
B13: GpH7-B3 variant P238_04F/GpL16-k0 (antibody, human IgG1, kappa)
heavy: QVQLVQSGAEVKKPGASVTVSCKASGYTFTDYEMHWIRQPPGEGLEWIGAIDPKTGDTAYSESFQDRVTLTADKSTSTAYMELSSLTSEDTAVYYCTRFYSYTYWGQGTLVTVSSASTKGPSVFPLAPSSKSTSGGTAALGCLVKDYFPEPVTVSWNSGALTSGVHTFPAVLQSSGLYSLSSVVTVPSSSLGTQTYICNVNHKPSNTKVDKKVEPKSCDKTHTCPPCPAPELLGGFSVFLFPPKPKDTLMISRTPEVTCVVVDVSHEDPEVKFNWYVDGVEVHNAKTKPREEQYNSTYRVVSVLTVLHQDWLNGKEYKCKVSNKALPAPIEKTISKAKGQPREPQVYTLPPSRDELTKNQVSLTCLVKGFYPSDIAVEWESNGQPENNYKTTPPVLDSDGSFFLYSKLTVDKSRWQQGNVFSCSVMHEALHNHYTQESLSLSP
light: B1 light
notes: homodimerized: alteration in both H chains; also called Ho Ab P238_04F
B14: GpH7-B3 variant P331_04F/GpL16-k0 (antibody, human IgG1, kappa)
heavy: not shown
light: B1 light
notes: homodimerized: alteration in both H chains; also called Ho Ab P331_04F
B15: GpH7-B3 variant L328_14T/GpL16-k0 (antibody, human IgG1, kappa)
heavy: not shown
light: B1 light
notes: homodimerized: alteration in both H chains; also called Ho Ab L328_14T
B16: GpH7-A5/GpH7-B3 variant T335_07I/GpL16-k0 (antibody, human IgG1, kappa)
heavy 1: not shown
heavy 2: not shown
light: B1 light
notes: also called He Ab T335_07I
B17: GpH7-A5/GpH7-B3 variant S337_16H/GpL16-k0 (antibody, human IgG1, kappa)
heavy 1: not shown
heavy 2: not shown
light: B1 light
notes: also called He Ab S337_16H
B18: GpH7-B3 variant S267_03V/GpL16-k0 (antibody, human IgG1, kappa)
heavy: not shown
light: B1 light
notes: homodimerized: alteration in both H chains; also called Ho Ab S267_03V
B19: GpH7-B3 variant K334_19Q/GpL16-k0 (antibody, human IgG1, kappa)
heavy: not shown
light: B1 light
notes: homodimerized: alteration in both H chains; also called Ho Ab K334_19Q
B20: GpH7-B3 variant S267_06M/GpL16-k0 (antibody, human IgG1, kappa)
heavy: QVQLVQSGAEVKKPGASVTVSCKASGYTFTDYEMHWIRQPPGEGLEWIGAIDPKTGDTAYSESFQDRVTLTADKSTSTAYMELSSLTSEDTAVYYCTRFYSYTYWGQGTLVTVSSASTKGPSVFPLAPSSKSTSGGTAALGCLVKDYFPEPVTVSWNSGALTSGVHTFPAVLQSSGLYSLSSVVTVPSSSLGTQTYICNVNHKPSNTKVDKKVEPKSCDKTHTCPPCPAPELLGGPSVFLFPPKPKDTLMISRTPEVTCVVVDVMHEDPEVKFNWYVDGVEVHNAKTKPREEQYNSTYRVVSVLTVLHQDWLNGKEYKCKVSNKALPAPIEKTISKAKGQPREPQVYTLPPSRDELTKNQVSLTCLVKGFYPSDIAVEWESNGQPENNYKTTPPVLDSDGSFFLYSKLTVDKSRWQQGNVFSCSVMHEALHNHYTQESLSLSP
light: B1 light
notes: homodimerized: alteration in both H chains; also called Ho Ab S267_06M
B21: GpH7-B3 variant P238_03V/GpL16-k0 (antibody, human IgG1, kappa)
heavy: not shown
light: B1 light
notes: homodimerized: alteration in both H chains; also called Ho Ab P238_03V
B22: GpH7-B3 variant G237_04F/GpL16-k0 (antibody, human IgG1, kappa)
heavy: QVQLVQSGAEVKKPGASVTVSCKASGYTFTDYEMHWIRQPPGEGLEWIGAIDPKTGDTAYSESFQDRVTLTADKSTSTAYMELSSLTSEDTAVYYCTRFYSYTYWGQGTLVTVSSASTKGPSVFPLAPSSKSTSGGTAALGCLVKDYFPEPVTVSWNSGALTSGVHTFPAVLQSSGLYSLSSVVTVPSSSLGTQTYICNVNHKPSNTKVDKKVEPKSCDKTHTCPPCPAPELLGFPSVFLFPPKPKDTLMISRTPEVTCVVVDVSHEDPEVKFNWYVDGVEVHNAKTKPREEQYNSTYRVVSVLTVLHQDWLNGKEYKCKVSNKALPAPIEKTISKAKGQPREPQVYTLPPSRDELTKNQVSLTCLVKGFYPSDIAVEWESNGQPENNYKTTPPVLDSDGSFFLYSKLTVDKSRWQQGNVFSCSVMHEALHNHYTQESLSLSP
light: B1 light
notes: homodimerized: alteration in both H chains; also called Ho Ab G237_04F
B23: GpH7-B3 variant K334_10E/GpL16-k0 (antibody, human IgG1, kappa)
heavy: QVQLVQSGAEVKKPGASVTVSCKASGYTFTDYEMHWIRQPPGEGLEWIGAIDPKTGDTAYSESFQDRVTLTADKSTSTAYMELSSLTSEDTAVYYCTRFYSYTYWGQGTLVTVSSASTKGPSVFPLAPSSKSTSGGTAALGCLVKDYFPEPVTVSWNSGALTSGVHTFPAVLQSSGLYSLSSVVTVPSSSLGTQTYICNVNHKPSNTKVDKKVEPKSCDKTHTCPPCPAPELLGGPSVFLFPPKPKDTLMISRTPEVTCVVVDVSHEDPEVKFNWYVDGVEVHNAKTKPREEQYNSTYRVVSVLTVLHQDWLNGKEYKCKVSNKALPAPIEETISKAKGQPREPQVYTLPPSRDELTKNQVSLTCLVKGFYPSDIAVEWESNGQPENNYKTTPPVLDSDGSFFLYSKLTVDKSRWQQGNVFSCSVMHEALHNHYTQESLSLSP
light: B1 light
notes: homodimerized: alteration in both H chains; also called Ho Ab K334_10E
B24: GpH7-B3 variant G237_20W/GpL16-k0 (antibody, human IgG1, kappa)
heavy: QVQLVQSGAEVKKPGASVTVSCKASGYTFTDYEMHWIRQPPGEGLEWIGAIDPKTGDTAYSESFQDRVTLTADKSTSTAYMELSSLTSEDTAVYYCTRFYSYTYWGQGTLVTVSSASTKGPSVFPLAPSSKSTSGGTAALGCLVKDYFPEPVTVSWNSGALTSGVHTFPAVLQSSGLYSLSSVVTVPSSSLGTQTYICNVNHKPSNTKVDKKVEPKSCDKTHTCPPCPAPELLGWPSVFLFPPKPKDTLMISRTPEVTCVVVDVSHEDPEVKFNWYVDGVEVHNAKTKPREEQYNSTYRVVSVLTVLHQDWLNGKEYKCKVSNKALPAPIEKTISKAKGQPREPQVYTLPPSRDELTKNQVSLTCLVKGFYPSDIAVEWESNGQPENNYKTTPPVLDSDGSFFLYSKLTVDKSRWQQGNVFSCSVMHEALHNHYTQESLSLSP
light: B1 light
notes: homodimerized: alteration in both H chains; also called Ho Ab G237_20W
B25: GpH7-B3 variant K326_03V/GpL16-k0 (antibody, human IgG1, kappa)
heavy: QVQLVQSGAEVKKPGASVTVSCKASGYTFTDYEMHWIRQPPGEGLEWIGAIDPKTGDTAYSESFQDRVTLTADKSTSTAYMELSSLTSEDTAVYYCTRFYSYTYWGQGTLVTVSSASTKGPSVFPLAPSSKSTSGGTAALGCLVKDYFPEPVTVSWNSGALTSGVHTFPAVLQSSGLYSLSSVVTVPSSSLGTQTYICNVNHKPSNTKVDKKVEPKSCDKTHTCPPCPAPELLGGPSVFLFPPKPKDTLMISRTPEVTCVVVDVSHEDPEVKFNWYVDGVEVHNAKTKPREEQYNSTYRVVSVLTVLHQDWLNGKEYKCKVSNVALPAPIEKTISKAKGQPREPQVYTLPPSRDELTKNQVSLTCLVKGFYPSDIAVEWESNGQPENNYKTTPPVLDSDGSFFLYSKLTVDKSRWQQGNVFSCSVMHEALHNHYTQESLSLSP
light: B1 light
notes: homodimerized: alteration in both H chains; also called Ho Ab K326_03V
B26: GpH7-B3 variant A327_09D/GpL16-k0 (antibody, human IgG1, kappa)
heavy: not shown
light: B1 light
notes: homodimerized: alteration in both H chains; also called Ho Ab A327_09D
B27: GpH7-B3 variant K334_04F/GpL16-k0 (antibody, human IgG1, kappa)
heavy: not shown
light: B1 light
notes: homodimerized: alteration in both H chains; also called Ho Ab K334_04F

What was measured:
[1] = biological target: T1, FcγRIIb extracellular domain with C-terminal His tag (human, UniProt P31994 43-217); assay: SPR, relative binding, HeCon Ab = 100
T1 construct: extracellular domain; also called FcgRIIb; 2b; not shown: His tag at the C terminus
T1 sequence (looked up): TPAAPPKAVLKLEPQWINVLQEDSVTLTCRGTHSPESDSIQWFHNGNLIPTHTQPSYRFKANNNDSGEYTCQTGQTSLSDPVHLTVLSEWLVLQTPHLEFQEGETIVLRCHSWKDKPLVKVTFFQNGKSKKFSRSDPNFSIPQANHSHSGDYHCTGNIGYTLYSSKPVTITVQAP
Description: (§1) Analysis of interaction between objective antibody and the FcγR was carried out using Biacore T100 (GE Healthcare). HBS-EP+ (GE Healthcare) was used as the running buffer, and the measurement temperature was set to 25° C. Chips produced by immobilizing the antigen peptide by the amine coupling method to a Series S Sencor Chip CM5 (GE Healthcare), or alternatively, chips produced by allowing preliminarily biotinylated antigen peptides to interact with and immobilize onto a Series S Sensor Chip SA (certified) (GE Healthcare) were used. Antibodies of interest were captured onto an antigen peptide-immobilized chip, and allowed to interact to each FcγR diluted with running buffer. To regenerate and repeatedly use the chip, the antibodies captured on the chip were washed off by reacting 10 mM glycine-HCl, pH 1.5.

[2] = biological target: T2, FcγRIIa R extracellular domain with C-terminal His tag (human, UniProt P12318 34-217); assay: SPR (Biacore), relative FcγRIIa R binding, GpH7-B3/GpL16-k0 = 100
T2 construct: extracellular domain; also called FcgRIIa R; 2aR; not shown: His tag at the C terminus
T2 sequence (looked up): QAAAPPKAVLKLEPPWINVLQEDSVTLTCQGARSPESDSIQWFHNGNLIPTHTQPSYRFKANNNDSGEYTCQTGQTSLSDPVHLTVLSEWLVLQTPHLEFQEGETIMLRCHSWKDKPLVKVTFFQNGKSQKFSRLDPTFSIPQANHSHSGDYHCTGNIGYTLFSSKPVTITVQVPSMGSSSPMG
Description: as §1

| Binder | He/Con_2b [1] | Ho/Con_2aR [2] |
| --- | --- | --- |
| B1 | 251 % of control | – |
| B2 | – | 108 % of control |
| B3 | – | 167 % of control |
| B4 | – | 134 % of control |
| B5 | 108 % of control | – |
| B6 | 108 % of control | – |
| B7 | – | 103 % of control |
| B8 | – | 104 % of control |
| B9 | 112 % of control | – |
| B10 | – | 105 % of control |
| B11 | – | 110 % of control |
| B12 | – | 133 % of control |
| B13 | – | 146 % of control |
| B14 | – | 106 % of control |
| B15 | – | 118 % of control |
| B16 | 106 % of control | – |
| B17 | 105 % of control | – |
| B18 | – | 115 % of control |
| B19 | – | 108 % of control |
| B20 | – | 102 % of control |
| B21 | – | 116 % of control |
| B22 | – | 113 % of control |
| B23 | – | 106 % of control |
| B24 | – | 107 % of control |
| B25 | – | 139 % of control |
| B26 | – | 120 % of control |
| B27 | – | 110 % of control |

Reference: patent publication US20150344570A1 (published 2015)
